Measurements from patent CN108203464A (GENSCRIPT NANJING CO LTD, dated 2018).

B1: 1H10C4D4 (antibody, V domains shown)
VH: EVKLVESGGGLVKPGGSLKLSCAASGFTFSSYDMSWVRQTPDKRLEWVATISGGGSYTYYPDSVKGRFTISRDNAKNNLYLQMSSLRSEDTALYYCGSPYGKYGMEYWGQGTSVTVSS
VL: DIVMTQSHKFMSTSVGDRVSITCKASQDVGSVVAWYQQKPGQSPKLLIYWASTRHTGVPDRFTGSGSGTDFTLTISNVQSEDLADYFCQQYSSYPLTFGSGTKLELK
notes: Detected with goat anti-mouse IgG
B2: 2E5E4D11 (antibody, V domains shown)
VH: EVKLVESGGVLVQPGGSLKLSCAASGFTFSSYTMSWVRQTPEKRLEWVAYISGGGGDTYYPDTVKGRFTISRDNAKNTLYLQMNSLKSGDTAMYYCARHGYDAACFAYWGQGTLVTVSA
VL: DIVMTQSHKFMSTSVGDRVSFTCKASQDVNTAVAWYQQKPGQSPKLLIYWASTRHTGVPDRFTGSGSGTDYTLTISSVQAEDLALYYCQQHYSIPWTVGGGTKLEIK
notes: I took the two as the same clone (likely a misprint); also called 2E5E4E11
B3: 154G5A5B7 (antibody, V domains shown)
VH: QVQLKESGPGLVAPSQSLSITCTVSGFSLTVYGVNWVRQPPGKGLEWLGMIWGDGTTDYNSALKSRLIINKDNSKSQVFLKMNSLQTDDTARYYCARDDYGTFLYWGQGTLVTVSA
VL: DIVMSQSPSSLAVSAGEKVTMSCKSSQSLLNSRTRKNYLAWYQQKPGQSPKLLIFWASTRESGVPDRFTGSVSGTDFTLTISSVQAEDLAVYYCKQSYTLRTFGGGTKLEIK

Experiments:
[1] = target: human PD-1 expressed on cells (human, UniProt Q15116 25-288); test: cell-based or functional assay
[2] = target: T1, 重组蛋白PD-1-Fc (GenScript, Z03370): human PD-1 extracellular domain fused to human IgG1 Fc (human, UniProt Q15116 25-170); test: indirect ELISA, PD-1-Fc coated at 0.5 μg/ml
T1 construct: extracellular domain; Bought reagent (GenScript Z03370); also called PD-1-Fc重组蛋白; PD-1-Fc融合蛋白; not shown: human IgG1 Fc segment

[3] = target: T2, 重组人PD-1蛋白 (recombinant human PD-1 protein) (human, UniProt Q15116 25-167, limits assumed); test: competition ELISA: human PD-1 coated, biotin-PD-L1-Fc 0.15 μg/ml as competitor
T2 construct: also called 重组蛋白PD-1
T2 sequence (Q15116 25-167 limits assumed): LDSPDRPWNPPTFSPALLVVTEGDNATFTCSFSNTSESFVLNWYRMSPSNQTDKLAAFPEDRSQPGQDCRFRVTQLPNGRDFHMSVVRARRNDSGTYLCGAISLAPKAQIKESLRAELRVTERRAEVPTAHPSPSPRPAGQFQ

human PD-1 expressed on cells, sequence (Q15116 25-288): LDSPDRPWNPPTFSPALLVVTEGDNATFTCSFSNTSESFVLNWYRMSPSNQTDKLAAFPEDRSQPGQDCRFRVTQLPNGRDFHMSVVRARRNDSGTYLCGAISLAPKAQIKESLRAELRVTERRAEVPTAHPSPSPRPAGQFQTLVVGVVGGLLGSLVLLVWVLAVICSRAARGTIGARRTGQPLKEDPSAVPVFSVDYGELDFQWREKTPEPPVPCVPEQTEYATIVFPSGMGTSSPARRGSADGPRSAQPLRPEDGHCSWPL
T1 sequence (Q15116 25-170 limits assumed, one chain of several): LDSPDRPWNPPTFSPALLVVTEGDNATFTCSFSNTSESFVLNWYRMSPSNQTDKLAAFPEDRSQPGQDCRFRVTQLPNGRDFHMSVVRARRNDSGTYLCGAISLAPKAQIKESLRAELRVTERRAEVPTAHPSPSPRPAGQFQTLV

| Binder | IL-2 secretion, mixed lymphocyte reaction (CD4+ T cells + allogeneic dendritic cells), EC50 [1] | RLU, NFAT-RE reporter effector cells (PD-1) co-cultured with PD-L1 target cells, EC50 [1] | EC50 [2] | IC50 [3] |
| --- | --- | --- | --- | --- |
| B1 | 0.064 μg/ml | 1.13 µg/mL | 0.00681 µg/mL | 0.493 µg/mL |
| B2 | 0.929 μg/ml | 1.01 µg/mL | 0.00465 µg/mL | 0.429 µg/mL |
| B3 | 1.12 μg/ml | 1.42 µg/mL | 0.00872 µg/mL | 0.366 µg/mL |
